Measured values: IntAct's records for PubMed 19805276

B1: Stage IV sporulation protein FB (Bacillus subtilis), P26937 (parent)
chain: MNKWLDLILKIHVHPFLWIIAALGLLTGHMKALLCLLLIVLIHELGHAALAVFFSWRIKRVFLLPFGGTVEVEEHGNRPLKEEFAVIIAGPLQHIWLQFAAWMLAEVSVIHQHTFELFTFYNLSILFVNLLPIWPLDGGKLLFLLFSKQLPFQKAHRLNLKTSLCFCLLLGCWVLFVIPLQISAWVLFVFLAVSLFEEYRQRHYIHVRFLLERYYGKNRELEKLLPLTVKAEDKVYHVMAEFKRGCKHPIIIEKSGQKLSQLDENEVLHAYFADKRTNSSMEELLLPY
partner: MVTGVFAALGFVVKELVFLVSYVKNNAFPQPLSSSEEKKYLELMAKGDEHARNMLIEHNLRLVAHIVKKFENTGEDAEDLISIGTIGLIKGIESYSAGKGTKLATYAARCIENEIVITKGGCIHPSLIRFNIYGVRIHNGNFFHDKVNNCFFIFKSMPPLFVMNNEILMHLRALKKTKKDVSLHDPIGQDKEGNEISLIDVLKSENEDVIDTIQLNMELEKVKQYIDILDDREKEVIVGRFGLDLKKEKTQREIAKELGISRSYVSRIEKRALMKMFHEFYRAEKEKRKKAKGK

Variants of: B1
Conditions: with rpsk_bacsu sigK

Variant	effect of a mutation on the interaction
E44Q	disrupting interaction
